Positions count from the first letter of the chain named.
T1: fusion protein in which the extracellular domain of human GITR is fused with the domain of mouse IgG1-Fc (human)
T1 construct: The GITR part is said to start at residue 1 of Q9Y5U5, so the entry may hold a signal peptide; Made in HEK293 cells, Protein A purified; also called hGITR-muFc; human GITR protein
T1 chain: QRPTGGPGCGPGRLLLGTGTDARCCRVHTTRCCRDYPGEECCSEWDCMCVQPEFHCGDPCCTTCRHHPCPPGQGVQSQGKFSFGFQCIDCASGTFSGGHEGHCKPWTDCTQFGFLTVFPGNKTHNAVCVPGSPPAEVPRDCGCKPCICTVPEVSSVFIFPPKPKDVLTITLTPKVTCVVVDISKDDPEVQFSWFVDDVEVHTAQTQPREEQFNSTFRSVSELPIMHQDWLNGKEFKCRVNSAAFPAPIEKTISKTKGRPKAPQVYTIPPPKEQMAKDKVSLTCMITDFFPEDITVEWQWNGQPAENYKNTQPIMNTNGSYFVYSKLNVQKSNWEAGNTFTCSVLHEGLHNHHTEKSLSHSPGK

B1: isolated antigen-binding protein C3E2 (antibody, human IgG1, kappa, V domains shown)
VH: QVQLQESGPGILQPSQTLSLTCSFSGFSLSTFGMGVGWIRQPSGKGLEWLVLILWNDIKYYNPALKSLLTVSKDTSNNQVFLKIASVDTADTATYYCARVDGYYGYFDVWGTGTTVTVSS
VL: DIVMTQSPLSLPVSLGDQASISCRSSQTIVHSNGNTYLEWYLQKPGQSPKLLIYKVSNRFSGVPDRFSGSGSGTDFTLKISRVEAEDLGVYYCFQGSHVPWTFGGGTKLEIKR
notes: made in HEK293 cells; also called parent antibody; chimeric antibody
B2: isolated antigen-binding protein 3E2 1-3 (antibody, human IgG1, kappa)
heavy: not shown
light: DIVMTQSPLSLPVTLGQPASISCRSSQTIVHSNGNTYLEWYLQKPGQSPKLLIYKVSNRFSGVPDRFSGSGSGTDFTLKISRVEAEDVGVYYCFQGSHVPWTFGGGTKLEIKRTVAAPSVFIFPPSDEQLKSGTASVVCLLNNFYPREAKVQWKVDNALQSGNSQESVTEQDSKDSTYSLSSTLTLSKADYEKHKVYACEVTHQGLSSPVTKSFNRGEC
notes: also called VHV1/VLV3
B3: isolated antigen-binding protein 3E2 1-2 (antibody, human IgG1, kappa, V domains shown)
VH: QVTLQESGPTLVKPTQTLTLTCTFSGFSLSTFGMGVGWIRQPPGKGLEWLVLILWNDIKYYNPALKSLLTVTKDTSKNQVVLTITNMDPVDTATYYCARVDGYYGYFDVWGQGTMVTVSS
VL: B1 VL with S14T, D17Q, Q18P, K44R, L88V, L109V
notes: also called VHV1/VLV2
B4: isolated antigen-binding protein 3E2 2-2 (antibody, human IgG1, kappa)
heavy: not shown
light: B2 light with K44R, L109V
notes: also called VHV2/VLV2
B5: isolated antigen-binding protein 3E2 1-4 (antibody, human IgG1, kappa)
heavy: not shown
light: B2 light with Q17D, P18Q
notes: also called VHV1/VLV4
B6: isolated antigen-binding protein 3E2 2-3 (antibody, human IgG1, kappa)
heavy: not shown
light: B2 light
notes: also called VHV2/VLV3
B7: isolated antigen-binding protein 3E2 2-4 (antibody, human IgG1, kappa)
heavy: not shown
light: B2 light with Q17D, P18Q
notes: also called VHV2/VLV4
B8: isolated antigen-binding protein 3E2 3-4 (antibody, human IgG1, kappa)
heavy: not shown
light: B2 light with Q17D, P18Q
notes: also called VHV3/VLV4
B9: isolated antigen-binding protein 3E2 3-3 (antibody, human IgG1, kappa)
heavy: not shown
light: B2 light
notes: also called VHV3/VLV3
B10: isolated antigen-binding protein 3E2 3-2 (antibody, human IgG1, kappa)
heavy: not shown
light: B2 light with K44R, L109V
notes: also called VHV3/VLV2

Target: T1, fusion protein in which the …
Assay: ELISA, hGITR-muFc coated at 5 ug/ml, anti-human IgG-HRP (FIG. 5)
Method: (§1) An ELISA plate was coated with 5 μg/ml of hGITR-muFc at 100 μl/well, and incubated overnight at 4° C. The plate was washed with 10 mM of PBS/Tween (0.05%) at pH 7.4 for 3 times, blocked with PBS containing 3% BSA and incubated at 37° C. for 2 h; then washed for 3 times, added with the above 9 isolated antigen-binding proteins of the present application in 3-fold dilutions starting from 10 μg/ml, incubated at 37° C. for 2 h, washed for 3 times, added with anti-human IgG-HRP enzyme-labeled secondary antibody, incubated at 37° C. for 1 h, cleaned, then developed with TMB substrate, and subjected to spectrophotometric analysis at OD450 nm. The results are shown in FIG. 5 and FIG. 6, in which the EC₅₀ values of various proteins in FIG. 5 and FIG. 6 are shown in Table 3 and Table 4, respectively. It can be seen from FIG. 5 and FIG. 6 as well as Table 3 and Table 4 that, the humanized antibodies (i.e., the isolated antigen-binding proteins of the present application 3E2 1-2, 3E2 1-3, 3E2 1-4, 3E2 2-2, 3E2 2-3, 3E2 2-4, 3E2 3-2, 3E2 3-3 and 3E2 3-4) have a binding affinity to the antigen that is equivalent to that of the parent antibody (i.e., the isolated antigen-binding protein C3E2 of the present application).

EC50 | Binder
6.21 ng/mL | B1
5.83 ng/mL | B2
5.9 ng/mL | B3
5.64 ng/mL | B4
4.52 ng/mL | B5

Target: T1, fusion protein in which the …
Assay: ELISA, hGITR-muFc coated at 5 ug/ml, anti-human IgG-HRP (FIG. 6)
Method: as §1

EC50 | Binder
6.72 ng/mL | B1
4.71 ng/mL | B6
4.8 ng/mL | B7
6.43 ng/mL | B8
6.04 ng/mL | B9
5.28 ng/mL | B10

Target: T1, fusion protein in which the …
Assay: BLI (Octet K2), antibody on AHC biosensor, hGITR-muFc in solution from 100 nM
Method: Using the BLI method, the above 9 isolated antigen-binding proteins of the present application and C3E2 were immobilized on the AHC biosensor at a concentration of 10 µg/ml. At the same time, the hGITR-muFc prepared in Example 1 was diluted 2-fold from 100 nM in 5 gradients. The reaction plate was placed on Octet K2 instrument, meanwhile the program was set as Baseline 60 s, Association 20 s, Disscociation 300 s, Baseline 2 30 s, Loading 40 s, custom 5 s. At the end of the program, curve fitting and parameter conversion were conducted.

Kd | koff | kon | Binder
6.01 pM | 1.83e-05 s⁻¹ | 3.05e+06 M⁻¹ s⁻¹ | B1
< 1 pM | < 1e-07 s⁻¹ | 2.46e+06 M⁻¹ s⁻¹ | B6
< 1 pM | < 1e-07 s⁻¹ | 2.32e+06 M⁻¹ s⁻¹ | B2
< 1 pM | < 1e-07 s⁻¹ | 2.41e+06 M⁻¹ s⁻¹ | B7
4.72 pM | 1.23e-05 s⁻¹ | 2.6e+06 M⁻¹ s⁻¹ | B8
< 1 pM | < 1e-07 s⁻¹ | 2.49e+06 M⁻¹ s⁻¹ | B3
< 1 pM | < 1e-07 s⁻¹ | 2.49e+06 M⁻¹ s⁻¹ | B9
12.5 pM | 3.01e-05 s⁻¹ | 2.4e+06 M⁻¹ s⁻¹ | B4
< 1 pM | < 1e-07 s⁻¹ | 2.52e+06 M⁻¹ s⁻¹ | B10
< 1 pM | < 1e-07 s⁻¹ | 2.55e+06 M⁻¹ s⁻¹ | B5

From patent US20220356259A1 (SHIHUDA PHARMACEUTICAL GROUP JILIN, published 2022)
